Consider 35 variants from the Human Domainome abundance scans (Beltran et al. 2025).

First the molecules themselves.
B1: Steroid hormone receptor ERR2, residues 100 to 176; numbered along this chain, O95718 (parent)
chain: KRLCLVCGDIASGYHYGVASCEACKAFFKRTIQGNIEYSCPATNECEITKRRRKSCQACRFMKCLKVGMLKEGVRLD

± gives the uncertainty stated by the source.

Variants of B1 are the subject of this series. The series can be described thus: abundance fitness (aPCA) (normalised: wild type 0, dead -1); higher = more abundant; growth selection in yeast, the domain comes from the species named. The note with it: Homo sapiens.
In the case of KRLCLVCGDIASGYHYGVASCEACKAFFKRTIQGNIEYSCPATNECEITKRRRKSCQACRFMYCLKVGMLKEGVRLD, the abundance fitness is -0.982 ± 0.28.

Regarding KRLCLVCGDIASGYHYGVASCEACKAFFKRTIQGNIEYSCPATNECEITKRRRKSCQACRFMKCLVVGMLKEGVRLD, the abundance fitness is -0.241 ± 0.059.

For KRLCLVCGDIASGYHYGVASCEACKAFFKRTIQGNIEYSCPATNECEITKRRRKSCQACRFMKCLHVGMLKEGVRLD, the abundance fitness is -0.168 ± 0.13.

KRLCLVCGDIASGYHYGVASCEACKAFFKRTIQGNIEYSCPATNECEITKRRRKSCQACRFMKCLMVGMLKEGVRLD: the abundance fitness is 0.074 ± 0.066.

Regarding KRLCLVCGDIASGYHYGVASCEACKAFFKRTIQGNIEYSCPATNECEITKRRRKSCQACRFMKCLTVGMLKEGVRLD, the abundance fitness came to 0.162 ± 0.052.

Turning to KRLCLVCGDIASGYHYGVASCEACKAFFKRTIQGNIEYSCPATNECEITKRRRKSCQACRFMKCLDVGMLKEGVRLD, the abundance fitness was -0.103 ± 0.094.

Turning to KRLCLVCGDIASGYHYGVASCEACKAFFKRTIQGNIEYSCPATNECEITKRRRKSCQACRFMKCLSVGMLKEGVRLD, the abundance fitness is -0.011 ± 0.049.

Take KRLCLVCGDIASGYHYGVASCEACKAFFKRTIQGNIEYSCPATNECEITKRRRKSCQACRFMKCLQVGMLKEGVRLD: the abundance fitness is -0.03 ± 0.072.

As for KRLCLVCGDIASGYHYGVASCEACKAFFKRTIQGNIEYSCPATNECEITKRRRKSCQACRFMKCLWVGMLKEGVRLD, the abundance fitness is -0.559 ± 0.1.

With KRLCLVCGDIASGYHYGVASCEACKAFFKRTIQGNIEYSCPATNECEITKRRRKSCQACRFMKCLYVGMLKEGVRLD, the abundance fitness was -0.508 ± 0.19.

For KRLCLVCGDIASGYHYGVASCEACKAFFKRTIQGNIEYSCPATNECEITKRRRKSCQACRFMKCLEVGMLKEGVRLD, the abundance fitness is -0.073 ± 0.075.

With KRLCLVCGDIASGYHYGVASCEACKAFFKRTIQGNIEYSCPATNECEITKRRRKSCQACRFMKCLLVGMLKEGVRLD, the abundance fitness is -0.436 ± 0.065.

KRLCLVCGDIASGYHYGVASCEACKAFFKRTIQGNIEYSCPATNECEITKRRRKSCQACRFMKCLFVGMLKEGVRLD: the abundance fitness is -0.585 ± 0.18.

On to KRLCLVCGDIASGYHYGVASCEACKAFFKRTIQGNIEYSCPATNECEITKRRRKSCQACRFMKCLCVGMLKEGVRLD, for which the abundance fitness is -0.354 ± 0.1.

For KRLCLVCGDIASGYHYGVASCEACKAFFKRTIQGNIEYSCPATNECEITKRRRKSCQACRFMKCLPVGMLKEGVRLD, the abundance fitness was -1.27 ± 0.38.

Turning to KRLCLVCGDIASGYHYGVASCEACKAFFKRTIQGNIEYSCPATNECEITKRRRKSCQACRFMKCLRVGMLKEGVRLD, the abundance fitness is -0.019 ± 0.043.

On to KRLCLVCGDIASGYHYGVASCEACKAFFKRTIQGNIEYSCPATNECEITKRRRKSCQACRFMKCLGVGMLKEGVRLD, for which the abundance fitness is -0.256 ± 0.053.

With KRLCLVCGDIASGYHYGVASCEACKAFFKRTIQGNIEYSCPATNECEITKRRRKSCQACRFMKCLKQGMLKEGVRLD, the abundance fitness was -0.439 ± 0.09.

For the variant KRLCLVCGDIASGYHYGVASCEACKAFFKRTIQGNIEYSCPATNECEITKRRRKSCQACRFMKCLKTGMLKEGVRLD, the abundance fitness is -0.262 ± 0.079.

Take KRLCLVCGDIASGYHYGVASCEACKAFFKRTIQGNIEYSCPATNECEITKRRRKSCQACRFMKCLKEGMLKEGVRLD: the abundance fitness is -0.145 ± 0.058.

On to KRLCLVCGDIASGYHYGVASCEACKAFFKRTIQGNIEYSCPATNECEITKRRRKSCQACRFMKCLKFGMLKEGVRLD, for which the abundance fitness is -0.24 ± 0.15.

Consider KRLCLVCGDIASGYHYGVASCEACKAFFKRTIQGNIEYSCPATNECEITKRRRKSCQACRFMKCLKMGMLKEGVRLD, for which the abundance fitness was -0.061 ± 0.069.

For KRLCLVCGDIASGYHYGVASCEACKAFFKRTIQGNIEYSCPATNECEITKRRRKSCQACRFMKCLKCGMLKEGVRLD, the abundance fitness is -0.027 ± 0.074.

KRLCLVCGDIASGYHYGVASCEACKAFFKRTIQGNIEYSCPATNECEITKRRRKSCQACRFMKCLKLGMLKEGVRLD: the abundance fitness was -0.222 ± 0.057.

In the case of KRLCLVCGDIASGYHYGVASCEACKAFFKRTIQGNIEYSCPATNECEITKRRRKSCQACRFMKCLKNGMLKEGVRLD, the abundance fitness was -0.538 ± 0.24.

Consider KRLCLVCGDIASGYHYGVASCEACKAFFKRTIQGNIEYSCPATNECEITKRRRKSCQACRFMKCLKIGMLKEGVRLD, for which the abundance fitness was -0.323 ± 0.14.

Consider KRLCLVCGDIASGYHYGVASCEACKAFFKRTIQGNIEYSCPATNECEITKRRRKSCQACRFMKCLKRGMLKEGVRLD, for which the abundance fitness is -0.409 ± 0.056.

For the variant KRLCLVCGDIASGYHYGVASCEACKAFFKRTIQGNIEYSCPATNECEITKRRRKSCQACRFMKCLKSGMLKEGVRLD, the abundance fitness was -0.073 ± 0.054.

For KRLCLVCGDIASGYHYGVASCEACKAFFKRTIQGNIEYSCPATNECEITKRRRKSCQACRFMKCLKGGMLKEGVRLD, the abundance fitness was -0.425 ± 0.056.

KRLCLVCGDIASGYHYGVASCEACKAFFKRTIQGNIEYSCPATNECEITKRRRKSCQACRFMKCLKWGMLKEGVRLD: the abundance fitness was -0.665 ± 0.13.

As for KRLCLVCGDIASGYHYGVASCEACKAFFKRTIQGNIEYSCPATNECEITKRRRKSCQACRFMKCLKHGMLKEGVRLD, the abundance fitness is -0.321 ± 0.17.

Regarding KRLCLVCGDIASGYHYGVASCEACKAFFKRTIQGNIEYSCPATNECEITKRRRKSCQACRFMKCLKDGMLKEGVRLD, the abundance fitness was -0.646 ± 0.21.

On to KRLCLVCGDIASGYHYGVASCEACKAFFKRTIQGNIEYSCPATNECEITKRRRKSCQACRFMKCLKPGMLKEGVRLD, for which the abundance fitness is -1.03 ± 0.24.

Regarding KRLCLVCGDIASGYHYGVASCEACKAFFKRTIQGNIEYSCPATNECEITKRRRKSCQACRFMKCLKYGMLKEGVRLD, the abundance fitness was -0.347 ± 0.14.

In the case of KRLCLVCGDIASGYHYGVASCEACKAFFKRTIQGNIEYSCPATNECEITKRRRKSCQACRFMKCLKAGMLKEGVRLD, the abundance fitness was -0.121 ± 0.055.
